Our source for the Kd values is paper PMC9474507.

Assay [1] has as its target pre-formed corona layer (proteins of 10% mouse serum pre-adsorbed on L-NPs) (mouse (endogenous in serum)). Put plainly: BLI; L-NPs loaded on human IgG-coated AR2G biosensors, immersed in 10% mouse serum (300 s in the methods, 3 min in the text) and rinsed with water; association 300 s with 6.25-100 nM HSA or IgG, dissociation 600 s in buffer; 30 °C, 1000 rpm; 1:1 model. On the technique in general: Biolayer interferometry detects binding as a change in optical thickness at a sensor tip.

Assay [2] addresses Albumin purified from human serum (human) (UniProt P02768). Description: BLI; HSA pre-coated on L-NPs.
In assay [3] the target is Immunoglobulin G purified from human serum (human) [IgG part: P01857]. Put plainly: BLI; IgG pre-coated on L-NPs.

One may read the Kd as a measure of binding affinity in units of concentration. A lower Kd goes with higher affinity. For the substance “Albumin purified from human serum (from UniProt P02768 25-609) (natural protein)”, in assay [1], the Kd was found to be 32.5 nM.

Take “Immunoglobulin G purified from human serum (from UniProt P01857)”: the dissociation constant (Kd) in assay [2] is < 0.001 nM; in assay [3], 5.1 nM. In turn, “Immunoglobulin G purified from human serum (antibody)” returned a dissociation constant Kd in assay [1] of 1.2 nM. This counts as single-digit nanomolar.
